Results on one protein are retold here after PMC8857464.

Substrate in the data set: C[C@H](N)C(=O)O
Briefly: purified protein. The settings on record: nonoxidized enzyme (no H2O2), amino acid activation, 2 mM ATP, 2 mM PPi, 10 mM MgCl2, pH 7.2, 37 °C.

B1: AlaRS (Escherichia coli K-12) (protein)
chain: SKSTAEIRQAFLDFFHSKGHQVVASSSLVPHNDPTLLFTNAGMNQFKDVFLGLDKRNYSRATTSQRCVRAGGKHNDLENVGYTARHHTFFEMLGNFSFGDYFKHDAIQFAWELLTSEKWFALPKERLWVTVYESDDEAYEIWEKEVGIPRERIIRIGDNKGAPYASDNFWQMGDTGPCGPCTEIFYDHGDHIWGGPPGSPEEDGDRYIEIWNIVFMQFNRQADGTMEPLPKPSVDTGMGLERIAAVLQHVNSNYDIDLFRTLIQAVAKVTGATDLSNKSLRVIADHIRSCAFLIADGVMPSNENRGYVLRRIIRRAVRHGNMLGAKETFFYKLVGPLIDVMGSAGEDLKRQQAQVEQVLKTEEEQFARTLERGLALLDEELAKLSGDTLDGETAFRLYDTYGFPVDLTADVCRERNIKVDEAGFEAAMEEQRRRAREASGFGADYNAMIRVDSASEFKGYDHLELNGKVTALFVDGKAVDAINAGQEAVVVLDQTPFYAESGGQVGDKGELKGANFSFAVEDTQKYGQAIGHIGKLAAGSLKVGDAVQADVDEARRARIRLNHSATHLMHAALRQVLGTHVSQKGSLVNDKVLRFDFSHNEAMKPEEIRAVEDLVNTQIRRNLPIETNIMDLEAAKAKGAMALFGEKYDERVRVLSMGDFSTELCGGTHASRTGDIGLFRIISESGTAAGVRRIEAVTGEGAIATVHADSDRLSEVAHLLKGDSNNLADKVRSVLERTRQLEKELQQLKEQAAAQESANLSSKAIDVNGVKLLVSELSGVEPKMLRTMVDDLKNQLGSTIIVLATVVEGKVSLIAGVSKDVTDRVKAGELIGMVAQQVGGKGGGRPDMAQAGGTDAAALPAALASVKGWVSAKLQ
What is called Km is the substrate concentration at which the rate is half of its maximum. A word on the kcat: it is the maximal rate divided by the concentration of active sites. What is called kcat/Km is the turnover number divided by the Michaelis constant. For the protein B1, the Km came to 329 ± 84.6 µM, the kcat was 16 s⁻¹ and the kcat/Km stood at 48300 M⁻¹ s⁻¹.
